In patent publication US20230143604A1, “QW DOSING OF GIP RECEPTOR AGONIST PEPTIDE COMPOUNDS AND USES THEREOF” (TAKEDA PHARMACEUTICAL COMPANY LIMITED, priority 2020, published 2023):
Non-standard residues stand in square brackets, D forms with d. Groups on a side chain read outwards from the residue. No end group written: not given here. *: point of attachment. 2OEGgEgE‑C18 diacid = O=C(O)CCCCCCCCCCCCCCCCC(=O)N[C@@H](CCC(=O)N[C@@H](CCC(=O)NCCOCCOCC(=O)NCCOCCOCC(=O)*)C(=O)O)C(=O)O; C20 diacid = O=C(O)CCCCCCCCCCCCCCCCCCC(=O)*; C18 diacid = O=C(O)CCCCCCCCCCCCCCCCC(=O)*; NMeY = CN[C@@H](Cc1ccc(O)cc1)C(=O)O; Aib = CC(C)(N)C(=O)O

T1: full-length human GIPR with an N-terminal FLAG tag (human, UniProt P48546 22-466)
T1 sequence (looked up): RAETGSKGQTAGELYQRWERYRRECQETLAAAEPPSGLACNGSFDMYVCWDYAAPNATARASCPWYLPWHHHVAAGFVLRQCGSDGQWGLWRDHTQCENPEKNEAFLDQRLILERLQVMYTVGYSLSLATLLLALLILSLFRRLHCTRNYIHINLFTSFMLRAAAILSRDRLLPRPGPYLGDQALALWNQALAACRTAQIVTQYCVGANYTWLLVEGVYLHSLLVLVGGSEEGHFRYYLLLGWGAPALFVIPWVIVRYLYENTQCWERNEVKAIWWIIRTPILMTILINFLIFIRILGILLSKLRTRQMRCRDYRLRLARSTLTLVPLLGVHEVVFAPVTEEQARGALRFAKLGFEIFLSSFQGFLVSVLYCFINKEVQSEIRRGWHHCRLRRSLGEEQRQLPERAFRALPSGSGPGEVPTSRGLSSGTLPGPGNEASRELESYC

B1: Compound No. 61 (peptide)
peptide: [NMeY][Aib]EGTFISDYSIALDR[Aib]AQ[Aib]DFVNWLLAQK(2OEGgEgE‑C18 diacid)G-OH
modifications: N-terminus assumed
SMILES: CC[C@H](C)[C@H](NC(=O)[C@H](CO)NC(=O)[C@H](Cc1ccc(O)cc1)NC(=O)[C@H](CC(=O)O)NC(=O)[C@H](CO)NC(=O)[C@@H](NC(=O)[C@H](Cc1ccccc1)NC(=O)[C@@H](NC(=O)CNC(=O)[C@H](CCC(=O)O)NC(=O)C(C)(C)NC(=O)[C@H](Cc1ccc(O)cc1)NC)[C@@H](C)O)[C@@H](C)CC)C(=O)N[C@@H](C)C(=O)N[C@@H](CC(C)C)C(=O)N[C@@H](CC(=O)O)C(=O)N[C@@H](CCCNC(=N)N)C(=O)NC(C)(C)C(=O)N[C@@H](C)C(=O)N[C@@H](CCC(N)=O)C(=O)NC(C)(C)C(=O)N[C@@H](CC(=O)O)C(=O)N[C@@H](Cc1ccccc1)C(=O)N[C@H](C(=O)N[C@@H](CC(N)=O)C(=O)N[C@@H](Cc1c[nH]c2ccccc12)C(=O)N[C@@H](CC(C)C)C(=O)N[C@@H](CC(C)C)C(=O)N[C@@H](C)C(=O)N[C@@H](CCC(N)=O)C(=O)N[C@@H](CCCCNC(=O)COCCOCCNC(=O)COCCOCCNC(=O)CC[C@H](NC(=O)CC[C@H](NC(=O)CCCCCCCCCCCCCCCCC(=O)O)C(=O)O)C(=O)O)C(=O)NCC(=O)O)C(C)C
B2: Compound No. 55 (peptide)
peptide: [NMeY][Aib]EGTFISDYSIALDR[Aib]AQ[Aib]NFVNWLLAK(2OEGgEgE‑C18 diacid)RG-OH
modifications: N-terminus assumed
SMILES: CC[C@H](C)[C@H](NC(=O)[C@H](CO)NC(=O)[C@H](Cc1ccc(O)cc1)NC(=O)[C@H](CC(=O)O)NC(=O)[C@H](CO)NC(=O)[C@@H](NC(=O)[C@H](Cc1ccccc1)NC(=O)[C@@H](NC(=O)CNC(=O)[C@H](CCC(=O)O)NC(=O)C(C)(C)NC(=O)[C@H](Cc1ccc(O)cc1)NC)[C@@H](C)O)[C@@H](C)CC)C(=O)N[C@@H](C)C(=O)N[C@@H](CC(C)C)C(=O)N[C@@H](CC(=O)O)C(=O)N[C@@H](CCCNC(=N)N)C(=O)NC(C)(C)C(=O)N[C@@H](C)C(=O)N[C@@H](CCC(N)=O)C(=O)NC(C)(C)C(=O)N[C@@H](CC(N)=O)C(=O)N[C@@H](Cc1ccccc1)C(=O)N[C@H](C(=O)N[C@@H](CC(N)=O)C(=O)N[C@@H](Cc1c[nH]c2ccccc12)C(=O)N[C@@H](CC(C)C)C(=O)N[C@@H](CC(C)C)C(=O)N[C@@H](C)C(=O)N[C@@H](CCCCNC(=O)COCCOCCNC(=O)COCCOCCNC(=O)CC[C@H](NC(=O)CC[C@H](NC(=O)CCCCCCCCCCCCCCCCC(=O)O)C(=O)O)C(=O)O)C(=O)N[C@@H](CCCNC(=N)N)C(=O)NCC(=O)O)C(C)C
B3: Compound No. 57 (peptide)
peptide: [NMeY][Aib]EGTFISDYSIALDR[Aib]AQ[Aib]DFVNWLLAK(2OEGgEgE‑C18 diacid)RGGGGS-NH2
modifications: N-terminus assumed
SMILES: CC[C@H](C)[C@H](NC(=O)[C@H](CO)NC(=O)[C@H](Cc1ccc(O)cc1)NC(=O)[C@H](CC(=O)O)NC(=O)[C@H](CO)NC(=O)[C@@H](NC(=O)[C@H](Cc1ccccc1)NC(=O)[C@@H](NC(=O)CNC(=O)[C@H](CCC(=O)O)NC(=O)C(C)(C)NC(=O)[C@H](Cc1ccc(O)cc1)NC)[C@@H](C)O)[C@@H](C)CC)C(=O)N[C@@H](C)C(=O)N[C@@H](CC(C)C)C(=O)N[C@@H](CC(=O)O)C(=O)N[C@@H](CCCNC(=N)N)C(=O)NC(C)(C)C(=O)N[C@@H](C)C(=O)N[C@@H](CCC(N)=O)C(=O)NC(C)(C)C(=O)N[C@@H](CC(=O)O)C(=O)N[C@@H](Cc1ccccc1)C(=O)N[C@H](C(=O)N[C@@H](CC(N)=O)C(=O)N[C@@H](Cc1c[nH]c2ccccc12)C(=O)N[C@@H](CC(C)C)C(=O)N[C@@H](CC(C)C)C(=O)N[C@@H](C)C(=O)N[C@@H](CCCCNC(=O)COCCOCCNC(=O)COCCOCCNC(=O)CC[C@H](NC(=O)CC[C@H](NC(=O)CCCCCCCCCCCCCCCCC(=O)O)C(=O)O)C(=O)O)C(=O)N[C@@H](CCCNC(=N)N)C(=O)NCC(=O)NCC(=O)NCC(=O)NCC(=O)N[C@@H](CO)C(N)=O)C(C)C
B4: Compound No. 56 (peptide)
peptide: [NMeY][Aib]EGTFISDYSIALDR[Aib]AQ[Aib]DFVNWLLAK(2OEGgEgE‑C18 diacid)RG-OH
modifications: N-terminus assumed
SMILES: CC[C@H](C)[C@H](NC(=O)[C@H](CO)NC(=O)[C@H](Cc1ccc(O)cc1)NC(=O)[C@H](CC(=O)O)NC(=O)[C@H](CO)NC(=O)[C@@H](NC(=O)[C@H](Cc1ccccc1)NC(=O)[C@@H](NC(=O)CNC(=O)[C@H](CCC(=O)O)NC(=O)C(C)(C)NC(=O)[C@H](Cc1ccc(O)cc1)NC)[C@@H](C)O)[C@@H](C)CC)C(=O)N[C@@H](C)C(=O)N[C@@H](CC(C)C)C(=O)N[C@@H](CC(=O)O)C(=O)N[C@@H](CCCNC(=N)N)C(=O)NC(C)(C)C(=O)N[C@@H](C)C(=O)N[C@@H](CCC(N)=O)C(=O)NC(C)(C)C(=O)N[C@@H](CC(=O)O)C(=O)N[C@@H](Cc1ccccc1)C(=O)N[C@H](C(=O)N[C@@H](CC(N)=O)C(=O)N[C@@H](Cc1c[nH]c2ccccc12)C(=O)N[C@@H](CC(C)C)C(=O)N[C@@H](CC(C)C)C(=O)N[C@@H](C)C(=O)N[C@@H](CCCCNC(=O)COCCOCCNC(=O)COCCOCCNC(=O)CC[C@H](NC(=O)CC[C@H](NC(=O)CCCCCCCCCCCCCCCCC(=O)O)C(=O)O)C(=O)O)C(=O)N[C@@H](CCCNC(=N)N)C(=O)NCC(=O)O)C(C)C
B5: Compound No. 62 (peptide)
peptide: [NMeY][Aib]EGTFISDYSI[Aib]LDR[Aib]AQ[Aib]DFVNWLLAK(2OEGgEgE‑C18 diacid)RG-OH
modifications: N-terminus assumed
SMILES: CC[C@H](C)[C@H](NC(=O)[C@H](Cc1ccccc1)NC(=O)[C@@H](NC(=O)CNC(=O)[C@H](CCC(=O)O)NC(=O)C(C)(C)NC(=O)[C@H](Cc1ccc(O)cc1)NC)[C@@H](C)O)C(=O)N[C@@H](CO)C(=O)N[C@@H](CC(=O)O)C(=O)N[C@@H](Cc1ccc(O)cc1)C(=O)N[C@@H](CO)C(=O)N[C@H](C(=O)NC(C)(C)C(=O)N[C@@H](CC(C)C)C(=O)N[C@@H](CC(=O)O)C(=O)N[C@@H](CCCNC(=N)N)C(=O)NC(C)(C)C(=O)N[C@@H](C)C(=O)N[C@@H](CCC(N)=O)C(=O)NC(C)(C)C(=O)N[C@@H](CC(=O)O)C(=O)N[C@@H](Cc1ccccc1)C(=O)N[C@H](C(=O)N[C@@H](CC(N)=O)C(=O)N[C@@H](Cc1c[nH]c2ccccc12)C(=O)N[C@@H](CC(C)C)C(=O)N[C@@H](CC(C)C)C(=O)N[C@@H](C)C(=O)N[C@@H](CCCCNC(=O)COCCOCCNC(=O)COCCOCCNC(=O)CC[C@H](NC(=O)CC[C@H](NC(=O)CCCCCCCCCCCCCCCCC(=O)O)C(=O)O)C(=O)O)C(=O)N[C@@H](CCCNC(=N)N)C(=O)NCC(=O)O)C(C)C)[C@@H](C)CC

Target: T1, full-length human GIPR with an …
Experiment: cell-based or functional assay

Binder	Human GIPR cAMP EC50, HEK293T [nM]
[NMeY][Aib]EGTFISDYSIALDR[Aib]AQ[Aib]NFVNWLLAK(2OEGgEgE‑C18 diacid)SPSSGAPPPS-NH2 [Compound No. 59]	0.0005
[NMeY][Aib]EGTFISDYSIALDR[Aib]K([2OEGgEgE-C20 diacid])Q[Aib]NFVNWLLAQSPSSGAPPPS-NH2 [Compound No. 68]	0.0007
B1	0.0007
[NMeY][Aib]EGTFISDYSIALDR[Aib]AQ[Aib]DFVNWLLAK(2OEGgEgE‑C18 diacid)RPSSGAPPPS-NH2 [Compound No. 58]	0.0004
[NMeY][Aib]EGTFISDYSIALDRIHQQNFVNWLLAQK-NH2 (not fully specified (residue 30)) [Compound No. 5]	0.0007
[NMeY][Aib]EGTFISDYSI[Aib]LDR[Aib]AQ[Aib]K([2OEGgEgE-C18 diacid])FVNWLLAQKG-OH [Compound No. 66]	0.0008
B2	0.0009
YXEGTFISDYSIAXDSXAQXDFVNWLLAQSG (N-methyl Tyr 1; Aib at 2,17,20; Lys(G5-C18 diacid) at 14; C-terminal OH) [Compound No. 60]	0.0003
YXEGTFISDYSIAXDRXAQXDFVNWLLAQRG (N-methyl Tyr 1; Aib at 2,17,20; Lys(G5-C18 diacid) at 14; C-terminal OH) [Compound No. 63]	0.0002
YXEGTFISDYSIXLDSXAQXDFVNWLLAQRG (N-methyl Tyr 1; Aib at 2,13,20; Lys(G6-C18 diacid) at 17; C-terminal OH) [Compound No. 64]	0.0002
[NMeY][Aib]EGTFISDYSI[Aib]LDR[Aib]AQ[Aib]K([2OEGgEgE-C20 diacid])FVNWLLAQKG-OH [Compound No. 65]	0.001
B3	0.0006
B4	0.0006
B5	0.0004

Target: full-length human GLP-1R with an N-terminal FLAG tag (human, UniProt P43220 24-463)
Experiment: cell-based or functional assay

Binder	Human GLP1R cAMP EC50, HEK293T [nM]
[NMeY][Aib]EGTFISDYSIALDR[Aib]AQ[Aib]NFVNWLLAK(2OEGgEgE‑C18 diacid)SPSSGAPPPS-NH2 [Compound No. 59]	> 1000
[NMeY][Aib]EGTFISDYSIALDR[Aib]K([2OEGgEgE-C20 diacid])Q[Aib]NFVNWLLAQSPSSGAPPPS-NH2 [Compound No. 68]	> 1000
B1	> 1000
[NMeY][Aib]EGTFISDYSIALDR[Aib]AQ[Aib]DFVNWLLAK(2OEGgEgE‑C18 diacid)RPSSGAPPPS-NH2 [Compound No. 58]	> 1000
[NMeY][Aib]EGTFISDYSIALDRIHQQNFVNWLLAQK-NH2 (not fully specified (residue 30)) [Compound No. 5]	123
[NMeY][Aib]EGTFISDYSI[Aib]LDR[Aib]AQ[Aib]K([2OEGgEgE-C18 diacid])FVNWLLAQKG-OH [Compound No. 66]	32.4
B2	741
YXEGTFISDYSIAXDSXAQXDFVNWLLAQSG (N-methyl Tyr 1; Aib at 2,17,20; Lys(G5-C18 diacid) at 14; C-terminal OH) [Compound No. 60]	100
YXEGTFISDYSIAXDRXAQXDFVNWLLAQRG (N-methyl Tyr 1; Aib at 2,17,20; Lys(G5-C18 diacid) at 14; C-terminal OH) [Compound No. 63]	75.9
YXEGTFISDYSIXLDSXAQXDFVNWLLAQRG (N-methyl Tyr 1; Aib at 2,13,20; Lys(G6-C18 diacid) at 17; C-terminal OH) [Compound No. 64]	110
[NMeY][Aib]EGTFISDYSI[Aib]LDR[Aib]AQ[Aib]K([2OEGgEgE-C20 diacid])FVNWLLAQKG-OH [Compound No. 65]	40.7
B3	> 1000
B4	> 1000
B5	> 1000
